Reference: article PMC3820547

Legend:
[1] = target: A1 subunit of the RNA polymerase, endogenous (Pyrococcus abyssi (endogenous in P. abyssi cell extract))
[2] = target: A2 subunit of the RNA polymerase, endogenous (Pyrococcus abyssi (endogenous in P. abyssi cell extract))
[3] = target: Replication Protein A (Q9V1Z1, Q9V1Y9, Q9V1Z0), His-tagged RPA complex (Pyrococcus abyssi); test: SPR; RPA (100 nM, 10 min) held on a 5' biotinylated 32-mer ssDNA on a streptavidin surface; analytes injected at 16.67, 50, 150 and 450 nM; 25°C, PBS Tween 0.5%, 20 uL/min; referenced against ssDNA/RPA dissociation curves; 1:1 binding model

run-off transcripts in a promoter-specific in vitro transcription assay (gdh promoter; RNAP, TBP and TFB from P. furiosus), RPA 10-50 nM [1] | run-off transcripts in a promoter-specific in vitro transcription assay (gdh promoter; RNAP, TBP and TFB from P. furiosus), RPA 10-50 nM [2] | stability relative to the RPA/catalytic subunit of DNA primase complex (from the dissociation constants of Figure 2) [3] | Substance
3 fold | 3 fold | – | Replication Protein A (Q9V1Z1, Q9V1Y9, Q9V1Z0), His-tagged RPA complex
– | – | 2 fold | DNA Polymerase D (Q9V2F3, Q9V2F4), HIS-tagged complex (from UniProt Q9V2F3 1-619; Q9V2F4 1-1455)
